Assay [1] has as its target ビオチン化EpoR(Abbott CHO細胞由来 ref.#RB69084:4) (UniProt P19235). The experiment in a line: immunofluorescence microscopy on EpoR-coated sheep red cells, MAB307 plus Alexa488 anti-mouse IgG Fc.
In assay [2] the target is T1, 可溶性EPO受容体(sEPOR)(R&D Systems Cat.#307-ER/LF) (human, UniProt P19235 25-250).
T1 construct: extracellular domain; The ELISA paragraph names only 'soluble EPO receptor' with the catalogue number; also called sEPOR; 固相化エリスロポエチン受容体
T1 sequence (looked up): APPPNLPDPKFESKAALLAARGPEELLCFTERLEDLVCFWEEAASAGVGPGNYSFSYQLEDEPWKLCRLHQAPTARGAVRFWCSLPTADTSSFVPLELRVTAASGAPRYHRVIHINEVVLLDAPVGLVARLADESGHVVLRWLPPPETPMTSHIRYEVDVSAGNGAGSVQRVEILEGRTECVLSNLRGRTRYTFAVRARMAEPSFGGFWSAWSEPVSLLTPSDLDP
The experiment in a line: BIAcore (antibody immobilised, soluble human EPO receptor injected), as paragraph 65 attributes it; values not given. A general note: SPR reads the build-up and loss of mass on a sensor chip optically.

The target in assay [3] is T2, 全長組換えヒトEPO受容体(CHO細胞に発現) (human, UniProt P19235 25-508).
T2 construct: whole, on cells; also called 組換えEPO受容体を発現するCHO細胞; エリスロポエチン受容体
T2 sequence (looked up): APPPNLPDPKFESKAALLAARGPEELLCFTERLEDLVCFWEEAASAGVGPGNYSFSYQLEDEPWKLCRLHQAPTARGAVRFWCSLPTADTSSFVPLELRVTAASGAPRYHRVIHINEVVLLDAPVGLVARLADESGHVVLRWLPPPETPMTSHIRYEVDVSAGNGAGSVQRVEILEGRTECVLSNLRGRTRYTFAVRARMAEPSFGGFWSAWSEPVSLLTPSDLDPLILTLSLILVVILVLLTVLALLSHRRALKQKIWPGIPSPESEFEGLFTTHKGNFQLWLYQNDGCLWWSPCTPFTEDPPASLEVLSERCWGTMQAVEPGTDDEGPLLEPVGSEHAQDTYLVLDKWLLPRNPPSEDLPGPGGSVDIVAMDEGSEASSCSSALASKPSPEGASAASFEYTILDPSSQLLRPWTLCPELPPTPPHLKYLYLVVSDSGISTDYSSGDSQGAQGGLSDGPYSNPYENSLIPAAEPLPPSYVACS
Nature of the assay: competition with 125I-EPO on CHO cells expressing full-length human EPO receptor.

Assay [4] has as its target ヒトエリスロポエチン受容体(UT-7/Epo細胞・F36E細胞上) (human), P19235. Nature of the assay: cell-based or functional assay.
Assay [5] has as its target T3, ペプチドSE−3 (human).
T3 construct: also called SE-3; SE-3ペプチド
T3 peptide: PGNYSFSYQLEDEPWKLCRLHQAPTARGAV
The experiment in a line: ELISA on plate-coated SE-3 peptide (5 μg/ml), anti-human IgG (Fc)-HRP. In general terms: ELISA stands for enzyme-linked immunosorbent assay.

As for “マウス抗EpoR抗体(R&D Systems Cat.# MAB307) (antibody)”, in assay [1], the immunofluorescence score (0-4 scale) is 4 of 4.

B1: Ab198 (antibody, V domains shown)
VH: QVQLVESGGGVVQPGRSLRLSCVASGFTFSSYGMHWVRQAPGKGLEWVAVISYDGSNKYYADSVKGRFTISRDNSKNTLYLQMNSLRVEDTAVYYCARDHGGRYVYDYGMDVWGQGTTVTVSS
VL: DIQMTQSPSSVSASIGDRVSITCRASQGISSWLAWYQQKPGKAPTLLIYAASTLQRGVPSRFSGSGSGTDFTLTISSLQPEDFATYFCQQANSFPFTFGPGTKVDIK
notes: These were not used; also called AB-ABT2-XG2-198; ABT2-XG2-198
B1: the binding result in assay [2] and in assay [3] was “binds” throughout.

B2: Ab12 (antibody, V domains shown)
VH: QVQLQESGPGLVKPSETLSLTCTVSGASISSYYWSWIRQPPGKGLEWIGYIYYSGSTNYNPSLKSRVTISVDTSKNQFSLKLRSVTAADTAVYYCARERLGIGDYWGQGTLVTVSS
VL: DIQLTQSPSSLSASVGDRVTITCRASQGIRNDLGWYQQKPGKAPKRLIYAASSLQSGVPSRFSGSGSGTEFTLTISSLQPEDFATYYCLQHNTYPPTFGQGTKVEIK
notes: Human antibody (XenoMouse XG2); also called AB-ABT2-XG2-012; ABT2-XG2-012
On to B2, for which the F36E細胞の増殖:EPO対照との最大応答の差(モル当量基準) in assay [4] was 10 倍. In addition, the binding result is listed as “binds” in assay [2], “binds” in assay [3] and “no binding (tested: 5 μg/ml Ab12)” in assay [5].

The values above are taken from patent JP2006523083A (dated 2006).
